Holding throughout (test): SPR, interference factor immobilized
The target in assay [1] is T1, purified interference factor(s), Donor A.
T1 construct: also called interference in serum from Donor A

Assay [2] has as its target T2, purified interference factor(s), Donor B.
T2 construct: also called interference in serum from Donor B

Assay [3] deals with T3, purified interference factor(s), Donor C.
T3 construct: also called interference in serum from Donor C

B1: SEQ ID NO: 42 (VHH)
chain: EVQLVESGGGLVQPGGSLRLSCAASGRTFSYNPMGWFRQAPGKGRELVAAISRTGGSTYYPDSVEGRFTISRDNAKRMVYLQMNSLRAEDTAVYYCAAAGVRAEDGRVRTLPSEYTFWGQGTQVTVSSAAAEVQLVESGGGLVQPGGSLRLSCAASGRTFSYNPMGWFRQAPGKGRELVAAISRTGGSTYYPDSVEGRFTISRDNAKRMVYLQMNSLRAEDTAVYYCAAAGVRAEDGRVRTLPSEYTFWGQGTQVTVSSA
notes: Ex. 8
For the molecule B1, the “% of binding of reference (=100%)” value in assay [1] was determined as 1%; in assay [2], 4%.

B2: SEQ ID NO: 47 (VHH)
VHH: EVQLVESGGGLVQPGGSLRLSCAASGSVFKINVMAWYRQAPGKGRELVAGIISGGSTSYADSVKGRFTISRDNAKNTLYLQMNSLRPEDTAVYYCAFITTESDYDLGRRYWGQGTLVTVSS
notes: Ex. 8
Take B2: in assay [1], the “% of binding of reference (=100%)” value was 1%.

B3: SEQ ID NO: 45 (VHH)
VHH: EVQLVESGGGLVQAGGSLRLSCAASRSIGRLDRMGWYRHRTGEPRELVATITGGSSINYGDFVKGRFTISIDNAKNTVYLQMNNLKPEDTAVYYCNFNKYVTSRDTWGQGTQVTVSS
notes: Ex. 8; no addition
On to B3, for which, in assay [1], the “% of binding of reference (=100%)” value was 0%.

B4: SEQ ID NO: 71 (VHH)
VHH: EVQLVESGGGLVQPGGSLRLSCAASRSIGRLDRMGWYRHRPGEPRELVATITGGSSINYGDSVKGRFTISIDNSKNTVYLQMNSLRPEDTAVYYCNFNKYVTSRDTWGQGTLVTVSG
notes: Ex. 8
In the case of B4, the entries for the “% of binding of reference (=100%)” value in assay [1], in assay [2] and in assay [3] were 88%, 105% and 87%, respectively.

B5: SEQ ID NO: 68 (VHH)
VHH: EVQLVESGGGLVQAGGSLRLSCAASRSIGRLDRMGWYRHRPGEPRELVATITGGSSINYGDSVKGRFTISIDNSKNTVYLQMNSLRPEDTAVYYCNFNKYVTSRDTWGQGTQVTVSS
notes: Ex. 8
On to B5, for which the “% of binding of reference (=100%)” value in assay [1] worked out at 38%; in assay [2] it was 115%; in assay [3] it was 49%.

B6: SEQ ID NO: 70 (VHH)
VHH: EVQLVESGGGLVQPGGSLRLSCAASRSIGRLDRMGWYRHRPGEPRELVATITGGSSINYGDSVKGRFTISIDNSKNTVYLQMNSLRPEDTAVYYCNFNKYVTSRDTWGQGTLVQVSS
notes: Ex. 8
B6: the “% of binding of reference (=100%)” value was 90% in assay [1], 105% in assay [2] and 98% in assay [3].

B7: SEQ ID NO: 78 (VHH)
VHH: EVQLVESGGGLVRPGGSLRLSCAASRSIGRLDRMGWYRHRPGEPRELVATITGGSSINYGDSVKGRFTISIDNSKNTVYLQMNSLRPEDTAVYYCNFNKYVTSRDTWGQGTLVTVSS
notes: Ex. 8
As for B7, the “% of binding of reference (=100%)” value in assay [1] came to 96%; in assay [2], 96%; in assay [3], 100%.

B8: SEQ ID NO: 69 (VHH)
VHH: EVQLVESGGGLVQPGGSLRLSCAASRSIGRLDRMGWYRHRPGEPRELVATITGGSSINYGDSVKGRFTISIDNSKNTVYLQMNSLRPEDTAVYYCNFNKYVTSRDTWGQGTQVTVSS
notes: Ex. 8
In the case of B8, the “% of binding of reference (=100%)” value in assay [1] stood at 80%; in assay [2], 120%; in assay [3], 84%.

B9: SEQ ID NO: 72 (VHH)
VHH: EVQLVESGGGLVQPGGSLRLSCAASRSIGRLDRMGWYRHRPGEPRELVATITGGSSINYGDSVKGRFTISIDNSKNTVYLQMNSLRPEDTAVYYCNFNKYVTSRDTWGQGTLVTVGG
notes: Ex. 8
For the molecule B9, the “% of binding of reference (=100%)” value in assay [1] worked out at 70%; in assay [2], 47%; in assay [3], 56%.

B10: SEQ ID NO: 83 (VHH)
VHH: EVQLVESGGGLVQPGGSLRLSCAASRSIGRLDRMGWYRHRPGEPRELVATITGGSSINYGDSVKGRFTISIDNSKNTVYLQMNSLRPEDAAVYYCNFNKYVTSRDTWGQGTLVTVSS
notes: Ex. 8
Turning to B10, the “% of binding of reference (=100%)” value in assay [1] was 56%; in assay [2], 73%; in assay [3], 61%.

B11: SEQ ID NO: 81 (VHH)
VHH: EVQLVESGGGVVQPGGSLRLSCAASRSIGRLDRMGWYRHRPGEPRELVATITGGSSINYGDSVKGRFTISIDNSKNTVYLQMNSLRPEDTAVYYCNFNKYVTSRDTWGQGTLVTVSS
notes: Ex. 8
For the molecule B11, the “% of binding of reference (=100%)” value was found to be 94% in assay [1], 50% in assay [2] and 89% in assay [3].

B12: SEQ ID NO: 84 (VHH)
VHH: EVQLVESGGGLVQPGGSLRLSCAASRSIGRLDRMGWYRHRPGEPRELVATITGGSSINYGDSVKGRFTISIDNSKNTVYLQMNSLRPEDTAVYYCNFNKYVTSRDTWGQGTLVTVGS
notes: Ex. 8
B12: the “% of binding of reference (=100%)” value was determined as 84% in assay [1], 50% in assay [2] and 83% in assay [3].

B13: SEQ ID NO: 66 (VHH)
VHH: EVQLVESGGGSVQPGGSLRLSCAASRSIGRLDRMGWYRHRPGEPRELVATITGGSSINYGDSVKGRFTISIDNSKNTVYLQMNSLRPEDTAVYYCNFNKYVTSRDTWGQGTLVTVSS
notes: Ex. 8
In the case of B13, the “% of binding of reference (=100%)” value in assay [1] turned out to be 81%; in assay [2], 29%; in assay [3], 84%.

B14: SEQ ID NO: 82 (VHH)
VHH: EVQLVESGGGLVQPGGSLRLSCAASRSIGRLDRMGWYRHRPGEPRELVATITGGSSINYGDSVKGRFTISIDNSKNTVYLQMNSLRAEDTAVYYCNFNKYVTSRDTWGQGTLVTVSS
notes: Ex. 8
Regarding B14, the “% of binding of reference (=100%)” value in assay [1] was found to be 96%; in assay [2], 80%; in assay [3] it was 100%.

B15: SEQ ID NO: 80 (VHH)
VHH: EVQLVESGGGLVQPGGSLRLSCAASRSIGRLDRMGWYRHRPGEPRELVATITGGSSINYGDSVKGRFTISIDNSKNTVYLQMNSLRPEDTAVYYCNFNKYVTSRDTWGQGTLVQVGG
notes: Ex. 8
For the molecule B15, the “% of binding of reference (=100%)” value came to 65% in assay [1], 5% in assay [2] and 58% in assay [3].

B16: SEQ ID NO: 67 (VHH)
VHH: EVQLVESGGGLVQPGGSLRLSCAASRSIGRLDRMGWYRHRPGEPRELVATITGGSSINYGDSVKGRFTISIDNSKNTVYLQMNSLKPEDTAVYYCNFNKYVTSRDTWGQGTLVTVSS
notes: Ex. 8
In the case of B16, the “% of binding of reference (=100%)” value in assay [1] is 102%; in assay [2] it was 117%; in assay [3] it was 96%.

B17: SEQ ID NO: 86 (VHH)
VHH: EVQLVESGGGSVQPGGSLRLSCAASRSIGRLDRMGWYRHRPGEPRELVATITGGSSINYGDSVKGRFTISIDNSKNTVYLQMNSLRPEDTAVYYCNFNKYVTSRDTWGQGTLVQVSS
notes: Ex. 8
In the case of B17, the “% of binding of reference (=100%)” value stood at 76% in assay [1], 6% in assay [2] and 86% in assay [3].

B18: SEQ ID NO: 65 (VHH)
VHH: EVQLVESGGGLVQAGGSLRLSCAASRSIGRLDRMGWYRHRPGEPRELVATITGGSSINYGDSVKGRFTISIDNSKNTVYLQMNSLRPEDTAVYYCNFNKYVTSRDTWGQGTLVTVSS
notes: Ex. 8
Turning to B18, the “% of binding of reference (=100%)” value in assay [1] is 73%; in assay [2] it was 121%; in assay [3], 64%.

B19: SEQ ID NO: 85 (VHH)
VHH: EVQLVESGGGSVQPGGSLRLSCAASRSIGRLDRMGWYRHRPGEPRELVATITGGSSINYGDSVKGRFTISIDNSKNTVYLQMNSLRPEDTAVYYCNFNKYVTSRDTWGQGTLVQVGG
notes: Ex. 8
For the molecule B19, the results for the “% of binding of reference (=100%)” value in assay [1], in assay [2] and in assay [3] were 46%, 5% and 42%, respectively.

B20: SEQ ID NO: 38 (VHH)
chain: EVQLVESGGGLVQPGGSLRLSCAASGFTFSSYAMSWVRQAPGKGLEWVSGIKSSGDSTRYAGSVKGRFTISRDNAKNTLYLQMNSLRPEDTAVYYCAKSRVSRTGLYTYDNRGQGTLVTVSSGGGGSGGGGSGGGGSGGGGSEVQLVESGGGLVQPGGSLRLSCAASGRTFNNYAMGWFRQAPGKEREFVAAITRSGVRSGVSAIYGDSVKDRFTISRDNAKNTLYLQMNSLRPEDTAVYYCAASAIGSGALRRFEYDYSGQGTLVTVSSA
notes: Ex. 8
In the case of B20, the entries for the “% of binding of reference (=100%)” value in assay [1], in assay [2] and in assay [3] were 9%, 25% and 7%, respectively.

B21: SEQ ID NO: 43 (VHH)
chain: DVQLVESGGGLVQPGGSLRLSCAASGFILDYYAIGWFRQAPGKEREGVLCIDASDDITYYADSVKGRFTISRDNSKNTVYLQMNSLRPEDTAVYYCATPIGLSSSCLLEYDYDYWGQGTLVTVSSGGGGSGGGSEVQLLESGGGLVQPGGSLRLSCAASGFTFRSFGMSWVRQAPGKGPEWVSSISGSGSDTLYADSVKGRFTISRDNSKNTLYLQMNSLRPEDTAVYYCTIGGSLSRSSQGTLVTVSSA
notes: Ex. 8
Regarding B21, the results for the “% of binding of reference (=100%)” value in assay [1] and in assay [2] were 3% and 20%, respectively.

B22: SEQ ID NO: 48 (VHH)
VHH: EVQLVESGGGLVQPGGSLRLSCIASGLPFSTKSMGWFRQAPGKEREFVARISPGGTSRYYGDFVKGRFAISRDNAKNTTWLQMNSLKAEDTAVYYCASGERSTYIGSNYYRTNEYDYWGTGTQVTVSS
notes: Ex. 8
For B22, the “% of binding of reference (=100%)” value in assay [1] stood at 0%.

B23: SEQ ID NO: 49 (VHH)
VHH: EVQLLESGGGLVQPGGSLRLSCAASGLPFSTKSMGWFRQAPGKGREFVSRISPGGTSRYYGDFVKGRFTISRDNSKNTLYLQMNSLRAEDTAVYYCASGERSTYIGSNYYRTNEYDYWGQGTLVTVSS
notes: Ex. 8; V5L, I23A, E44G, A49S, A68T, A74S, T78L, W79Y, K83R, T110Q, Q108L
With B23, the “% of binding of reference (=100%)” value in assay [1] is 0%.

(Values after patent US20200216532A1 (Ablynx, published 2020).)
